Data taken from publication PMC2709985 (Biochemistry, 2009).

What was measured:
Sfp [1] = biological target: T1, Sfp (Bacillus subtilis, UniProt P39135); experiment: tritium incorporation into apo MBP-PhsA-His6; format: biochemical; details: acceptor apo MBP-PhsA-His6; labelled compound
T1 sequence (P39135 1-224): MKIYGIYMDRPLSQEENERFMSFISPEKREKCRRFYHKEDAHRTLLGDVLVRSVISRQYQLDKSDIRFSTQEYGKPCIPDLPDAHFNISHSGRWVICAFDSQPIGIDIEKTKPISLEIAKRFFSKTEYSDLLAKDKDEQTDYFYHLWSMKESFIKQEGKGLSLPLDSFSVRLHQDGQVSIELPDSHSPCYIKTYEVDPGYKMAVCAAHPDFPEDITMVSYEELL

Sfp [2] = biological target: T1, Sfp; experiment: fluorescent labelling of apo MBP-PhsA-His6, SDS-PAGE; format: biochemical; details: acceptor apo MBP-PhsA-His6; labelled compound
ATP-PPi exchange assay [3] = substrate: CC(=O)N[C@@H](CC[PH](=O)O)C(=O)O; experiment: ATP-PPi exchange assay; format: biochemical, Streptomyces viridochromogenes; details: holo form (phosphopantetheinylated by Sfp), apparent constant
ATP-PPi exchange assay [4] = substrate: CC(=O)N[C@@H](CCC(=O)O)C(=O)O; experiment: ATP-PPi exchange assay; format: biochemical, Streptomyces viridochromogenes; details: holo form (phosphopantetheinylated by Sfp), apparent constant

With `CC(=O)SCCNC(=O)CCNC(=O)[C@H](O)C(C)(C)COP(=O)(O)OP(=O)(O)OC[C@H]1O[C@@H](n2cnc3c(N)ncnc32)[C@H](O)[C@@H]1OP(=O)(O)O` [[^3H]acetyl-CoA] the “tritium incorporation into apo MBP-PhsA-His6” value (Sfp [1]) was “[^3H]acetyl-CoA was utilized as a cosubstrate, resulting in a time-dependent increase”.

For `CC1=CC(C)=[N+]2C1=Cc1ccc(CCC(=O)NCCN3C(=O)CC(SCCNC(=O)CCNC(=O)[C@H](O)C(C)(C)COP(=O)(O)OP(=O)(O)OC[C@H]4O[C@@H](n5cnc6c(N)ncnc65)[C@H](O)[C@@H]4OP(=O)(O)O)C3=O)n1[B-]2(F)F` (some centres unmarked) [BODIPY-FL-N-(2-aminoethyl)maleimidyl-S-CoA], the “fluorescent labelling of apo MBP-PhsA-His6, SDS-PAGE” value (Sfp [2]) was “CoA analogue BODIPY-FL-N-(2-aminoethyl)maleimidyl-S-CoA was employed to install a fluorescently labeled phosphopantetheine arm”.

B1: MBP−PhsA−His6 (Streptomyces viridochromogenes) (protein)
chain: MTAATPDTAPDRTGPSPGACPVVAEFARRAQAGPDRPAVVLPEETVDYRELAARADAVARALLDSRGEGSEPVPLMVLHPAWMLAACLGVLKAGKYYVPLNPHHPDARNRDLLARLGAALVVTDGAVPGRLPGRITVLSVGELDVRPGTPGEPGPAVAPDQWAYALYTSGSTGLPKGILQNRADMRQNIDRHAALGIGPEDRVTLINADGFVAAVSNPYMALLNGAALVPYSFQRDGVHDLIDRLDAAGTTVYYSFPSFLRQAAAVSEGRTTDRVRLAYLGGESVHSSDVLAARRLFPAATVAVGLNSTETGLTRLRLIPPGAEVPDPVPVGGPVPGVEVRVEASPGRPAAVGEAGRIVVRSAFLHAAQWTDQGPRPLTEAVPEADSGTACEPAPRDFRTGDRGRLDGTGQLVHLGRVDGMVKVRGYRVETVEVESAVSAVTGVAEAAVVPYETAEHATELAAYVVAKDPDLTDAALRRALSETLPTHLVPSSVLLVPRLPRTRNGKIDRKALPDPASGTSGTAVSRPAPAHTPAPAPGDGPDEARARVLGQVGEIWSDVLGAGPVLPGDDFFSLGGTSISALRVVSRIRKELGVPLRLAVIFETPSLEAVAESVLRELKGT
With B1 the Km (ATP-PPi exchange assay [3]) was 254 ± 44 µM, the kcat (ATP-PPi exchange assay [3]) was 2.08 ± 0.108 s⁻¹ and the kcat/Km (ATP-PPi exchange assay [3]) was 8170 ± 1500 M⁻¹ s⁻¹. The Km (ATP-PPi exchange assay [4]) was 493 ± 82 µM, the kcat (ATP-PPi exchange assay [4]) was 0.48 ± 0.025 s⁻¹ and the kcat/Km (ATP-PPi exchange assay [4]) was 973 ± 167 M⁻¹ s⁻¹.
